One block for each binder: values may come before it.
Target: T1, human IL-36R on HT29 cells, HT29 reporter gene cells, A431 cells and human PBMC (human, UniProt Q9HB29 20-575)
T1 sequence (looked up): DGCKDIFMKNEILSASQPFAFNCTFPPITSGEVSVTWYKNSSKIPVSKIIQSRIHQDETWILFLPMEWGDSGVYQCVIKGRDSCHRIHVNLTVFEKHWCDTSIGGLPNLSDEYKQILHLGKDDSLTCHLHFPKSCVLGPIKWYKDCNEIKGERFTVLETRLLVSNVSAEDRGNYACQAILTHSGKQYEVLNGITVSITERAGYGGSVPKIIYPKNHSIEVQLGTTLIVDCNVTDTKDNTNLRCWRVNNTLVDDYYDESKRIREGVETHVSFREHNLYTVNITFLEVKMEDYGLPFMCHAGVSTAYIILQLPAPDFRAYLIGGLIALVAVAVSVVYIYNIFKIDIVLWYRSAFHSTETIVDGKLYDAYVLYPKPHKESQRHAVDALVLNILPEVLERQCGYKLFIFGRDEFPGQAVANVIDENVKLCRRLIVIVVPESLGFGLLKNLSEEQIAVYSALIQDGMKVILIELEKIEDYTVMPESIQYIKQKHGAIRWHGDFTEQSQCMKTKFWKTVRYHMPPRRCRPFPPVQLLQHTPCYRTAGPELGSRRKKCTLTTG
Assay: cell-based or functional assay

- IC50 in inhibiting CXCL-1 release from A431 cells induced by the human IL-36 (α, β, γ): 12.3 ng/mL
- IC50 in inhibiting CXCL-1 release from HT29 cells induced by the human IL-36 (α, β, γ): 12.3 ng/mL
- IC50 in inhibiting IL-8 release from A431 cells induced by the human IL-36 (α, β, γ): 11.5 ng/mL
- IC50 in inhibiting IL-8 release from HT29 cells induced by the human IL-36 (α, β, γ): 11.5 ng/mL
- IC50 in inhibiting IL-8 release from human PBMC cells induced by the human IL-36β: 26.6 ng/mL
- IC50 in inhibiting STAT3 phosphorylation in HT29 reporter cells induced by human IL-36 (α, β, γ): 15.7 ng/mL
B1: Spesolimab (expressed from the B6 sequence of patent US9023995B2) (antibody, V domains shown)
VH: QVQLVQSGAEVKKPGASVKVSCKASGYSFTSSWIHWVKQAPGQGLEWMGEINPGNVRTNYNENFRNKVTMTVDTSISTAYMELSRLRSDDTAVYYCTVVFYGEPYFPYWGQGTLVTVSS
VL: QIVLTQSPGTLSLSPGERATMTCTASSSVSSSYFHWYQQKPGQAPRLWIYRTSRLASGVPDRFSGSGSGTDFTLTISRLEPEDAATYYCHQFHRSPLTFGAGTKLEIK

- IC50 in inhibiting CXCL-1 release from A431 cells induced by the human IL-36 (α, β, γ): 4.12 ng/mL
- IC50 in inhibiting CXCL-1 release from HT29 cells induced by the human IL-36 (α, β, γ): 2.21 ng/mL
- IC50 in inhibiting IL-8 release from A431 cells induced by the human IL-36 (α, β, γ): 2.89 ng/mL
- IC50 in inhibiting IL-8 release from HT29 cells induced by the human IL-36 (α, β, γ): 1.53 ng/mL
- IC50 in inhibiting IL-8 release from human PBMC cells induced by the human IL-36β: 4.69 ng/mL
- IC50 in inhibiting STAT3 phosphorylation in HT29 reporter cells induced by human IL-36 (α, β, γ): 2.16 ng/mL
B2: QX009N (HZD25-54) (antibody, human IgG1, kappa, L234A L235A, V domains shown)
VH: EVQLVESGGGLVQPGGSLRLSCAASGIDLSNYAMGWVRQAPGKGLEWVGYISGGGSAYYASWAKGRFTISRDNSKNTLYLQMNSLRAEDTAVYYCARWAIKSYFFGMDLWGQGTLVTVSS
VL: DIQMTQSPSSVSASVGDRVTITCQASEYISSYLAWYQQKPGKAPKLLIYQASTLASGVPSRFSGSGSGTDFTLTISSLQPEDFATYYCQTNNAIHTYGGAFGGGTKVEIKR

— patent US20250215098A1 (QYUNS THERAPEUTICS, published 2025)
